Measurements: US20200317768A1 (published 2020)

T1: Human latent myostatin (human, UniProt O14793 25-266; O14793 267-375)
T1 construct: Biotinylated in the ELISAs; also called human myostatin latent form
T1 sequence 1: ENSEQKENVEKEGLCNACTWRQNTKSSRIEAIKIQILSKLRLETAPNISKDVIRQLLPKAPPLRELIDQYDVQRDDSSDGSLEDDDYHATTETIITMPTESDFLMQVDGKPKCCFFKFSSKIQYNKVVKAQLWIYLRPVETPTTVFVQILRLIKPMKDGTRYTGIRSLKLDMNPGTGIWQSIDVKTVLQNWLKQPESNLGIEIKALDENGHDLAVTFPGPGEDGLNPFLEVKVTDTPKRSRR
T1 sequence 2: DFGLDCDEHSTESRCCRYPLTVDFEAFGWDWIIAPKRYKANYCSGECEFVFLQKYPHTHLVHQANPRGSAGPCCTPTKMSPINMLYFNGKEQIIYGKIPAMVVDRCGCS

T2: cynomolgus monkey FcγRIIb extracellular domain, His-tagged (cynomolgus monkey)
T2 construct: also called cyno FcγRIIb; cynoFcγRIIb; not shown: C-terminal His-tag
T2 chain: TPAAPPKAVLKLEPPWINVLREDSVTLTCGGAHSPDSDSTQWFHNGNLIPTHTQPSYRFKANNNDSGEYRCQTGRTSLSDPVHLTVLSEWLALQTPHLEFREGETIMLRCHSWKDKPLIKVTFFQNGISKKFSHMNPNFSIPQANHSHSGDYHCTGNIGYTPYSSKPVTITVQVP

T3: cynomolgus monkey FcγRIIa2 extracellular domain, His-tagged (cynomolgus monkey)
T3 construct: also called cyno FcγRIIa2; cynoFcgRIIa2; not shown: C-terminal His-tag
T3 chain: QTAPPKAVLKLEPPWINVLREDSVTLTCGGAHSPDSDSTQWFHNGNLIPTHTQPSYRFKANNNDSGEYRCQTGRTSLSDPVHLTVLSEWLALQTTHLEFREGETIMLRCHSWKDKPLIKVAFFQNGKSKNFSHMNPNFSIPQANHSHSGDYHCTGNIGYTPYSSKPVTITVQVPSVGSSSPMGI

T4: cynomolgus monkey FcγRIIa1 extracellular domain, His-tagged (cynomolgus monkey)
T4 construct: also called cyno FcγRIIa1; cynoFcgRIIa1; not shown: C-terminal His-tag
T4 chain: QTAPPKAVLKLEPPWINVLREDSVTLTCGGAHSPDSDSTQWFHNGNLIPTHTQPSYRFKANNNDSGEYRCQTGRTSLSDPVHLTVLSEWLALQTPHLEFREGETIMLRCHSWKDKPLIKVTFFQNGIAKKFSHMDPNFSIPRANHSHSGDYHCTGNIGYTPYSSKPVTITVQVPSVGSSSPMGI

T5: cynomolgus monkey FcγRIIIaS extracellular domain, His-tagged (cynomolgus monkey, UniProt Q8SPW2 21-206 at identity 1.00))
T5 construct: also called cyno FcγRIIIaS; cynoFcγRIIIaS; not shown: C-terminal His-tag
T5 chain: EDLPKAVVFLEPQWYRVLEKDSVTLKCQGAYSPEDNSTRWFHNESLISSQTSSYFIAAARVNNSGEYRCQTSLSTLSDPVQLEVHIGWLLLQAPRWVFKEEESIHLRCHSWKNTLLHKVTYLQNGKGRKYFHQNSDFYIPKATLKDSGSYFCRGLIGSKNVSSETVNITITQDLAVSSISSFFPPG

T6: human FcγRIIaR extracellular domain, His-tagged (human, UniProt P12318 34-217)
T6 construct: also called human FcγRIIa (type R); FcgRIIaR; not shown: C-terminal His-tag
T6 chain: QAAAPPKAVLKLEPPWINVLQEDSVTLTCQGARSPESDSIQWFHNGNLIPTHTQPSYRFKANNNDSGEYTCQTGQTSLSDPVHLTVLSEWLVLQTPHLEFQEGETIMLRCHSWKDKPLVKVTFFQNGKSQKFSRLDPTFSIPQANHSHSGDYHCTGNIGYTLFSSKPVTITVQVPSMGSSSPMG

T7: cynomolgus monkey FcγRIIa3 extracellular domain, His-tagged (cynomolgus monkey)
T7 construct: also called cyno FcγRIIa3; cynoFcgRIIa3; not shown: C-terminal His-tag
T7 chain: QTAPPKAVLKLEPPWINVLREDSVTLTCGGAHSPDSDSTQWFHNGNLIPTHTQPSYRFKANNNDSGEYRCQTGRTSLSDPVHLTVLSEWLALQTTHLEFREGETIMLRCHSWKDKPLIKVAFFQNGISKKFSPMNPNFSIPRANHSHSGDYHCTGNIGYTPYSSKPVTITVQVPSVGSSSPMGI

T8: human FcγRIIaH extracellular domain, His-tagged (human, UniProt P12318 34-217)
T8 construct: also called human FcγRIIa (type H); FcgRIIaH; not shown: C-terminal His-tag
T8 sequence: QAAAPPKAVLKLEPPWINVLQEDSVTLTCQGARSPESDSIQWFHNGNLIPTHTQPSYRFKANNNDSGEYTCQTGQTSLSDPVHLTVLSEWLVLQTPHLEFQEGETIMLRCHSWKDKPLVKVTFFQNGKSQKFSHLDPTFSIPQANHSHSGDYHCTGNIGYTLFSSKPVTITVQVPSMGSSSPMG

T9: human FcγRIIb extracellular domain, His-tagged (human, UniProt P31994 43-217)
T9 construct: also called FcgRIIb; not shown: C-terminal His-tag
T9 sequence: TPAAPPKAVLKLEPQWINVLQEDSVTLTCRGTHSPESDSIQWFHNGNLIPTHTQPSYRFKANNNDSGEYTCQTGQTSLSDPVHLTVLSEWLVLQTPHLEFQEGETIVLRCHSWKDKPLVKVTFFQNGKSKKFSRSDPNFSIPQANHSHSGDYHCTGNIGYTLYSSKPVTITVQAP

B1: Ab004 (M103205H026 / M103202L000) (antibody, human IgG1, kappa, V domains shown)
VH: QVTLKESGPVLVKPTETLTLTCTVSGIDLSSYDISWVRQAPGKGLEWVGIISYAGSTYYASWAKGRLTISKDTSKNQVVLTMTNMDPVDTATYYCARGVPAHSTGGDLWGQGTLVTVSS
VL: DIVMTQSPATLSLSPGERATLSCQSSQSVYDNNWLSWFQQKPGQPPKLLIYWASTLASGVPSRFSGSGSGTDFTLTISSLQPEDAATYYCAGGYGGGLYAFGQGTKVEIKR
notes: Histidine-substituted variant of MS1032LO00-SG1
B2: Ab007 (M103205H028 / M103202L008) (antibody, human IgG1, kappa, V domains shown)
VH: QVTLKESGPVLVKPTETLTLTCTVSGIDLSSYDISWVRQAPGKGLEWVGIISYAGSTYYASWAKGRLTISKDTSKNQVVLTMTNMDPVDTATYYCARGVPAYSHGGDLWGQGTLVTVSS
VL: DIVMTQSPATLSLSPGERATLSCQSSQSVYHNNWLSWFQQKPGQPPKLLIYWASTLASGVPSRFSGSGSGTDFTLTISSLQPEDAATYYCAGGYGGGLYAFGQGTKVEIKR
notes: as for B1
B3: Ab006 (M103205H000 / M103202L008) (antibody, human IgG1, kappa, V domains shown)
VH: QVTLKESGPVLVKPTETLTLTCTVSGIDLSSYDISWVRQAPGKGLEWVGIISYAGSTYYASWAKGRLTISKDTSKNQVVLTMTNMDPVDTATYYCARGVPAYSTGGDLWGQGTLVTVSS
VL: DIVMTQSPATLSLSPGERATLSCQSSQSVYHNNWLSWFQQKPGQPPKLLIYWASTLASGVPSRFSGSGSGTDFTLTISSLQPEDAATYYCAGGYGGGLYAFGQGTKVEIKR
notes: as for B1
B4: Ab005 (M103205H028 / M103202L000) (antibody, human IgG1, kappa, V domains shown)
VH: QVTLKESGPVLVKPTETLTLTCTVSGIDLSSYDISWVRQAPGKGLEWVGIISYAGSTYYASWAKGRLTISKDTSKNQVVLTMTNMDPVDTATYYCARGVPAYSHGGDLWGQGTLVTVSS
VL: DIVMTQSPATLSLSPGERATLSCQSSQSVYDNNWLSWFQQKPGQPPKLLIYWASTLASGVPSRFSGSGSGTDFTLTISSLQPEDAATYYCAGGYGGGLYAFGQGTKVEIKR
notes: as for B1
B5: M103205H795-MY066/M103202L889-SK1 (antibody, human IgG1, kappa)
heavy: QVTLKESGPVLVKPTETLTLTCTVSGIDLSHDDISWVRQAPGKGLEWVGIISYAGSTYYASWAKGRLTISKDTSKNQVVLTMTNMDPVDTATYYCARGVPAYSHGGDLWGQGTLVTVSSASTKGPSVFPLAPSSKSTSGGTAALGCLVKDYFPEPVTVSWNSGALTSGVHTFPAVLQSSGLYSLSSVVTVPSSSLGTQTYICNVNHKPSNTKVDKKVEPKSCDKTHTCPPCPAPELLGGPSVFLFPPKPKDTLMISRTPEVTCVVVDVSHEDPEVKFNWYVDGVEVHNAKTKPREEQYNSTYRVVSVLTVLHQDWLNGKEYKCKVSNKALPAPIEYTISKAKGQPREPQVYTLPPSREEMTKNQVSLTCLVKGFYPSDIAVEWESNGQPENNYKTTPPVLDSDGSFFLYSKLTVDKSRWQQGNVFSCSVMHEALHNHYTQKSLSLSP
light: DIVMTQSPATLSLSPGERATLSCTSSQSVYHANWLSWFQQKPGQPPKLLIYWASTLAYGVPSRFSGSGSGTDFTLTISSLQPEDAATYYCAGGYGGGRYAFGQGTKVEIKRTVAAPSVFIFPPSDEQLKSGTASVVCLLNNFYPREAKVQWKVDNALQSGNSQESVTEQDSKDSTYSLSSTLTLSKADYEKHKVYACEVTHQGLSSPVTKSFNRGEC
notes: Substitution introduced into M103205H795-SG1 and expressed with M103202L889-SK1 as light chain; also called K334Y variant of MS1032LO06-SG1
B6: M103205H795-MY015/M103202L889-SK1 (antibody, human IgG1, kappa)
heavy: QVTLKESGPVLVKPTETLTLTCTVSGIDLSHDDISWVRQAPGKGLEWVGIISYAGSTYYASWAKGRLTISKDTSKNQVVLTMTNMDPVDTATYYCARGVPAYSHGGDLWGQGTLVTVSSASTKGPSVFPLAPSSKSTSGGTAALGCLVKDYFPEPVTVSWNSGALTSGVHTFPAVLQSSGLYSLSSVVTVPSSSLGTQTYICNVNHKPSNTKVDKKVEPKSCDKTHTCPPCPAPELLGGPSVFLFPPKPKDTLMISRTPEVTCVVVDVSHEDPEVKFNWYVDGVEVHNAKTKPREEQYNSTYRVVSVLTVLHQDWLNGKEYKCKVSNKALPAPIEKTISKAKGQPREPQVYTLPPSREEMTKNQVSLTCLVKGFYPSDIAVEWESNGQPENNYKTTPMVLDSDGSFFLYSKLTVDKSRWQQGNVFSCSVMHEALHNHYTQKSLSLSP
light: DIVMTQSPATLSLSPGERATLSCTSSQSVYHANWLSWFQQKPGQPPKLLIYWASTLAYGVPSRFSGSGSGTDFTLTISSLQPEDAATYYCAGGYGGGRYAFGQGTKVEIKRTVAAPSVFIFPPSDEQLKSGTASVVCLLNNFYPREAKVQWKVDNALQSGNSQESVTEQDSKDSTYSLSSTLTLSKADYEKHKVYACEVTHQGLSSPVTKSFNRGEC
notes: Substitution introduced into M103205H795-SG1 and expressed with M103202L889-SK1 as light chain; also called P396M variant of MS1032LO06-SG1

What was measured:
Human latent myostatin = biological target: T1, Human latent myostatin; assay: SPR (BIACORE), additional dissociation phase at pH5.8 after dissociation at pH7.4, Scrubber 2.0 fit
Experimental: Each amino acid in the CDRs was individually mutated to histidine using In-Fusion HD Cloning Kit (Clontech Inc, or Takara Bio company) according to the manufacturer's instructions. […] All histidine-substituted variants were evaluated by a modified BIACORE® assay as compared to that described above. Briefly, an additional dissociation phase at pH5.8 was integrated into the BIACORE® assay immediately after the dissociation phase at pH7.4. This is to assess the pH-dependent dissociation between antibody (Ab) and antigen (Ag) from the complexes formed at pH7.4 as opposed to the corresponding dissociation at pH5.8. The dissociation rate at pH5.8 buffer was determined by processing and fitting data using the Scrubber 2.0 (BioLogic Software) curve fitting software.
Antibodies with a combination of these mutations in the CDRs were then generated.

[1] = biological target: T2, cynomolgus monkey FcγRIIb extracellular …; assay: SPR (BIACORE), antibody captured on chip, FcγR as analyte, 25 °C; KD of SG1 divided by KD of the variant
Experimental: (§1) After the measurement, the antibody captured on the chip was washed off by allowing reaction with 10 mM glycine-HCl, pH1.5 and 25 mM NaOH so that the chip was regenerated and used repeatedly. The sensorgrams obtained as measurement results were analyzed by the 1:1 Langmuir binding model using the BIACORE® Evaluation Software to calculate the binding rate constant ka (L/mol/s) and dissociation rate constant kd (l/s), and the dissociation constant KD (mol/L) was calculated from these values. […] Regarding such interactions, KD values were calculated using the following 1:1 binding model described in BIACORE® T100 Software Handbook BR1006-48 Edition AE.
(§2) The behavior of interacting molecules according to the 1:1 binding model on BIACORE® can be described by Equation 1: Req=C·R max/(KD+C)+RI, wherein, Req is a plot of steady-state binding levels to analyte concentration. C is concentration, RI is bulk refractive index contribution in the sample, and Rmax is analyte binding capacity of the surface. When this equation is rearranged, KD can be expressed as Equation 2: KD=C·Rmax/(Req−RI)−C. KD can be calculated by substituting the values of Rmax, RI, and C into Equation 1 or Equation 2. From the current measurement conditions, RI=0, C=2 μmol/L can be used.

[2] = biological target: T3, cynomolgus monkey FcγRIIa2 …; assay: as above
Experimental: as §1, §2

[3] = biological target: T10, human FcγRIIIaV extracellular domain, His-tagged (human, UniProt P08637 17-208); assay: as above
T10 construct: also called human FcγRIIIa (V158 allotype); FcgRIIIaV; not shown: C-terminal His-tag
Experimental: as §1, §2

[4] = biological target: T4, cynomolgus monkey FcγRIIa1 …; assay: as above
Experimental: as §1, §2

[5] = biological target: T5, cynomolgus monkey FcγRIIIaS …; assay: as above
Experimental: as §1, §2

[6] = biological target: T6, human FcγRIIaR extracellular domain, …; assay: as above
Experimental: as §1, §2

[7] = biological target: T7, cynomolgus monkey FcγRIIa3 …; assay: as above
Experimental: as §1, §2

[8] = biological target: T8, human FcγRIIaH extracellular domain, …; assay: as above
Experimental: as §1, §2

[9] = biological target: T9, human FcγRIIb extracellular domain, …; assay: as above
Experimental: as §1, §2

T10 sequence (P08637 17-208 F176V): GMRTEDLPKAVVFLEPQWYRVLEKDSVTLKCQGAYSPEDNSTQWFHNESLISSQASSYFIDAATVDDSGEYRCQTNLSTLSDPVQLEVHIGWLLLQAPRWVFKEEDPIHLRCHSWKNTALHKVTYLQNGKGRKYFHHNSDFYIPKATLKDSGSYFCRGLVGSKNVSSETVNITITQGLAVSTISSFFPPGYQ

| Binder | koff (Human latent myostatin) | KD fold for cynoFcgRs (SG1 = 1) [1] | KD fold for cynoFcgRs (SG1 = 1) [2] | KD fold for humanFcgRs (SG1 = 1) [3] | KD fold for cynoFcgRs (SG1 = 1) [4] | KD fold for cynoFcgRs (SG1 = 1) [5] | KD fold for humanFcgRs (SG1 = 1) [6] | KD fold for cynoFcgRs (SG1 = 1) [7] | KD fold for humanFcgRs (SG1 = 1) [8] | KD fold for humanFcgRs (SG1 = 1) [9] |
| --- | --- | --- | --- | --- | --- | --- | --- | --- | --- | --- |
| B1 | 0.000186 s⁻¹ | – | – | – | – | – | – | – | – | – |
| B2 | 0.000415 s⁻¹ | – | – | – | – | – | – | – | – | – |
| B3 | 8.58e-05 s⁻¹ | – | – | – | – | – | – | – | – | – |
| B4 | 7.63e-05 s⁻¹ | – | – | – | – | – | – | – | – | – |
| B5 | – | 1.3 fold | 2 fold | 2.79 fold | 1.5 fold | 2.25 fold | 1.1 fold | 2.5 fold | 1.1 fold | 1.6 fold |
| B6 | – | 3 fold | 3.4 fold | 3.38 fold | 2.5 fold | 3.8 fold | 3.4 fold | 3.6 fold | 2.1 fold | 2.9 fold |
